The subject of one assay is HUVEC. Kind of assay: HUVEC cellular migration assay. The class given is cell-based, human. On the procedure:
Robo4-Fc and Robo4-His were contacted with vascular ECs using a HUVEC migration assay and in the presence or absence of VEGF.
Endothelial cell migration was not blocked by anti-Robo4 antibody in an in vitro assay using human umbilical vascular endothelial cells (HUVEC) cellular migration assay. HUVECs endogenously express human Robo4. The assay was performed as follows. HUVECs were pre-incubated for 2 hours with VEGF.

The next assay concerns the target T1, UNC5B (Homo sapiens, UniProt Q8IZJ1).
T1 construct: extracellular domain of UNC5B fused to an Fc region; Fc region
Kind of assay: SPR binding to immobilized UNC5B-Fc. On the procedure: It has been shown that netrin binding to members of the uncoordinated-5 (UNC5) family of receptors (UNC5A, B, C, and D) results in neural axon […] (Klagsbrun, M. and Eichmann, A., Cytokine & Growth Factor Reviews 16(4-5):535-548 (2005)). Netrin-UNC5B interaction has been implicated in angiogenesis (Klagsbrun, M. and Eichmann, A., supra (2005) and Lu, X. et al., Nature 432:179-186 (2004)). The interaction of Robo4 with UNC5B in vitro was determined by SPR binding measurements in which UNC5B-Fc fusion protein (extracellular domain of UNC5B fused to an Fc region) was immobilized on a chip and soluble Robo4-Fc or Robo4-His was allowed to interact with it at different concentrations.

T1 sequence (Q8IZJ1 27-377 limits assumed, species assumed): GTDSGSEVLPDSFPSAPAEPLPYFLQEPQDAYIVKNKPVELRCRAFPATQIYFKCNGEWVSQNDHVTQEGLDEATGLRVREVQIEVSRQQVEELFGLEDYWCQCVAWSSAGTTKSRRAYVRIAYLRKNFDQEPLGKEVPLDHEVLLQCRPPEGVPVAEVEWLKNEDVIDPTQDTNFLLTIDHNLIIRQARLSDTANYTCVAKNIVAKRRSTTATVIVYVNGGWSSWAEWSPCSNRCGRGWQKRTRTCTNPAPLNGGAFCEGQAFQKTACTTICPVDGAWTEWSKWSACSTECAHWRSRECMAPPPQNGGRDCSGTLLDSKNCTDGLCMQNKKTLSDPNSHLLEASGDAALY

B1: Robo4-His: soluble Robo4 extracellular domain fused to a C-terminal Histidine tag (protein)
chain: QDSPPQILVHPQDQLFQGPGPARMSCQASGQPPPTIRWLLNGQPLSMVPPDPHHLLPDGTLLLLQPPARGHAHDGQALSTDLGVYTCEASNRLGTAVSRGARLSVAVLREDFQIQPRDMVAVVGEQFTLECGPPWGHPEPTVSWWKDGKPLALQPGRHTVSGGSLLMARAEKSDEGTYMCVATNSAGHRESRAARVSIQEPQDYRAHHHHHHHH
Regarding B1, the “blocking of endothelial cell migration” value with HUVEC (HUVECs pre-incubated with VEGF, 16 hours) was “Neither anti-Robo4 nor the soluble Robo4 extracellular domain fusion proteins (Robo4-Fc and Robo4-His) blocked EC migration”. In addition, the “induction of EC migration” value in the assay on HUVEC (alone, absence of VEGF) is listed as “did not induce EC migration”. Further, in the assay with UNC5B, the “interaction with UNC5B” value is “interacts in vitro with UNC5B”.

(Values after patent publication US20110059013A1, “ANTI-ROBO4 ANTIBODIES AND USES THEREFOR” (Genentech, Inc., priority 2007, published 2011).)
